These results are taken from the RNAGym collection of RNA variant scans (doi:10.7554/elife.80360).

First the molecules themselves.
B1: HDV Ribozyme (parent)
chain: GGCCGGCAUGGUCCCAGCCUCCUCGCUGGCGCCGGCUGGGCAACAUUCCGAGGGGACCGUCCCCUCGGUAAUGGCGAAUGGGACCCA

The data set covers variants of B1. The experiment in a line: self-cleavage, relative activity (ratio to wild type); higher = more cleavage; co-transcriptional.
In the case of C41A A78C, the self-cleavage was 0.185. With C41A A78G the figure was 0.534; with G40U G76A, 0.789. Turning to G40U G76U, the self-cleavage worked out at 0.795.

On to G40U G76C, for which the self-cleavage is 0.492. In the case of G40A G76A it was 0.918; in that of G40A, 0.962; in that of G40C, 0.299.

Take G40U: the self-cleavage turned out to be 0.717. For the variant G40C C58G, the self-cleavage was 0.264. In the case of G40C C58A it was 0.151. In the case of G40A G54U it was 0.971. As to G40C C41A, the self-cleavage worked out at 0.706.

With G40A C85G, the self-cleavage was determined as 0.807.

As to G40A C85U, the self-cleavage was 1.1. In the case of G39U G68C it was 0.532; in that of G39C U47G, 0.199; in that of G39U A51G, 0.818. With G39U A51C the figure was 0.849; with G40U A43C, 0.374; with G40U A43U, 0.146. With G39U C49G the figure was 0.665. As for G40U C63A, the self-cleavage came out at 0.793.

Regarding G40U U72A, the self-cleavage came to 0.181.

In the case of G40U U72C, the self-cleavage amounted to 0.176. With G40A G82A the figure was 0.358; with G40A A43G, 0.623.

On to G40A A77U, for which the self-cleavage was 0.523. On to G39U C58G, for which the self-cleavage came to 0.506.

Consider G39U C85A, for which the self-cleavage was determined as 0.609. With G40C U46G the figure was 0.0831; with G40C U46A, 0.0339. In the case of G40C G74U it was 0.202; in that of G39U C61G, 0.464; in that of G39U C61A, 0.589. With G40U C75U the figure was 0.271; with G40U C75A, 0.12; with G40A G50U, 0.842. G40A G50C: the self-cleavage worked out at 0.92. In the case of G39U A77U it was 0.102; in that of G39U C86U, 0.858. In the case of G39U C86A it was 0.796.

As to G39C U69C, the self-cleavage is 0.401. As for G39U C41U, the self-cleavage was found to be 0.966. In the case of G40A A45U it was 0.563; in that of G40A A45C, 0.671. With G40U C66G the figure was 0.582; with G40U C66A, 0.702. In the case of G40U C66U it was 0.753. Consider G40U U65C, for which the self-cleavage was determined as 0.7.

Regarding G40U U65G, the self-cleavage was determined as 0.546. For the variant G40U C57G, the self-cleavage came to 0.712. For G40U C57A, the self-cleavage amounted to 0.719. In the case of G40U C84U it was 0.398. In the case of G40U C84G it was 0.354; in that of G40U C84A, 0.383. For the variant G40A C44U, the self-cleavage turned out to be 0.582. In the case of G40A C44G it was 0.302. On to G40A C44A, for which the self-cleavage is 0.692. In the case of G40U C86U it was 0.688; in that of G40U C86G, 0.562; in that of G40U C86A, 0.682.

On to G40C A78C, for which the self-cleavage was 0.147. With G40U A71G the figure was 0.46; with G40U A71U, 0.459; with G40U G73A, 0.463. In the case of G40U G73C it was 0.166; in that of G40A U79G, 0.755. In the case of G40A U79A it was 0.513. In the case of G40A U79C, the self-cleavage came out at 0.41. With G40A C58A the figure was 0.906; with G40A C58U, 1.18; with G40C G59U, 0.326. In the case of G40C G59A it was 0.179; in that of G40C G50U, 0.269. With G40C G50A the figure was 0.219; with G40C G50C, 0.225. On to G40A A71U, for which the self-cleavage came out at 0.796. With G40C G67A the figure was 0.23.

Turning to G40C G67C, the self-cleavage turned out to be 0.439.

G40U G80U: the self-cleavage came to 0.171. With G40U G54C the figure was 0.513. In the case of G40U G74A it was 0.415; in that of G39U G73C, 0.3. In the case of G39U A70U it was 0.831. With G40C U79G, the self-cleavage amounted to 0.138. In the case of G40C U79A it was 0.19; in that of G40A C64G, 0.531; in that of G40A C64A, 0.89.

In the case of G40U A87C, the self-cleavage was 0.732. With G40U G55A the figure was 0.722; with G40U G55C, 0.937; with G40U C61G, 0.534. With G40U C61U the figure was 0.631. In the case of G40U C61A it was 0.632; in that of G40A C41G, 0.937; in that of G40A C41A, 0.893. Regarding G39U C64A, the self-cleavage worked out at 0.649. Consider G40U C85A, for which the self-cleavage worked out at 0.427.

Take G40U C85U: the self-cleavage was 0.911. With G39U C57G the figure was 0.786; with G40U G52U, 0.576. Consider G40U C64G, for which the self-cleavage is 0.446. With G40C G53C the figure was 0.17. In the case of G40C G53U it was 0.337; in that of G40C G53A, 0.332; in that of G40A A42C, 0.543. In the case of G40A G59C it was 0.831. Turning to G40A G59U, the self-cleavage was found to be 0.987. Consider C41A A83U, for which the self-cleavage came to 0.35. In the case of G40C C61A it was 0.256. With G40C U69C the figure was 0.158; with G40C G82C, 0.188; with G40C G82A, 0.233. In the case of G40C G82U it was 0.0978. As for G40C C62A, the self-cleavage was found to be 0.237. In the case of G40C C62G it was 0. In the case of G40A C48U it was 0.793.

Regarding G40A C48G, the self-cleavage was 1.06.

As to G40A C48A, the self-cleavage worked out at 0.941. With G39U U79A the figure was 0.148; with G39U U79C, 0.155; with G39U U79G, 0.277. G40U U47C: the self-cleavage amounted to 0.475. In the case of G40U G81A it was 0.328; in that of C41A A56U, 0.89.

Take C41A A70U: the self-cleavage is 0.817. With G40C C63A the figure was 0.475; with G39U A45U, 0.325; with G39U A45C, 0.196. In the case of G39U G53C it was 0.831. With G39U G53A the figure was 0.789; with C41A A71U, 0.665; with C41A A71G, 0.91. Consider G39C U65A, for which the self-cleavage turned out to be 0.0462. In the case of G39U U46C it was 0.486; in that of G39U U46A, 0.285.

G39U U46G: the self-cleavage came out at 0.222. With G40C A71G the figure was 0.162; with G40C A71U, 0.228. With G39U G50U the figure was 0.627; with G39U G50A, 0.681; with G40U C48U, 0.628. With G40U C48G the figure was 0.665; with G40U C48A, 0.76. Take G39U A78U: the self-cleavage came to 0.157. With G39U A78G the figure was 0.198; with G39U A78C, 0.13.

On to G40A A87G, for which the self-cleavage turned out to be 0.959. In the case of C41A it was 0.94; in that of G40C C48A, 0.424. With G40C C48G the figure was 0.35.

Consider G39U G55A, for which the self-cleavage came out at 0.831.

As for G39U G55U, the self-cleavage stood at 0.677. With G40U U69A the figure was 0.623; with G40U U69C, 0.91.

G40C C86G: the self-cleavage came to 0.222. In the case of G40U G50C it was 0.626; in that of G40U G50A, 0.577. In the case of G39U A43U it was 0.148; in that of G40U A45U, 0.361. In the case of G40U A45G it was 0.688; in that of G40A U46A, 0.437.

In the case of G40C A83G, the self-cleavage came out at 0.163.

On to G39C U60C, for which the self-cleavage stood at 0.415. For the variant G39C U60A, the self-cleavage was 0.481.

As for G39C U60G, the self-cleavage stood at 0.185.
